2 substances from patent US20120329994A1 can be followed below.

In experiment [1] the target is WNV E ectodomain (residues 1-404) of the New York 1999 strain, expressed in E. coli and refolded (West Nile virus, New York 1999 strain) (UniProt Q9Q6P4). In words: SPR. Background: Surface plasmon resonance follows binding to a sensor surface in real time, without labels.
The target in experiment [2] is WNV DIII (residues 296-404) of the New York 1999 strain, expressed in E. coli and refolded (West Nile virus, New York 1999 strain) (UniProt Q9Q6P4). In words: SPR.

pKd: −log10 of the molar value.

As a reminder, the pKd is −log10 of the Kd, conventionally taken in molar units. A lower pKd goes with a large Kd. For “mHu-E16 (humanized E16 monoclonal antibody produced in CHO cells)”, the pKd in experiment [1] is 7.35; in experiment [2] it was 7.49.

For “pHu-E16 (plant-produced humanized E16 monoclonal antibody, made in N. benthamiana)”, the pKd is 7.34 in experiment [1] and 7.39 in experiment [2].
